T1: RFXAP (UniProt O00287 1-272)
T1 sequence (looked up): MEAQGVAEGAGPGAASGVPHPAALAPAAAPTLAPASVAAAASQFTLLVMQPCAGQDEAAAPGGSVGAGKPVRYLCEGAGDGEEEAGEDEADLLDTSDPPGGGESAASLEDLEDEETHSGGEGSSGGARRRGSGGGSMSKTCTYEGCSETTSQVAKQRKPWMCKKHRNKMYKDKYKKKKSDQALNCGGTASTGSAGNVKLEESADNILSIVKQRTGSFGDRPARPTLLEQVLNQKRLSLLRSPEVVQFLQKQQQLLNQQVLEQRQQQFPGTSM

B1: RFX5(1-90) (domain or fragment, UniProt P48382 1-90, looked up)
chain: MAEDEPDAKSPKTGGRAPPGGAEAGEPTTLLQRLRGTISKAVQNKVEGILQDVQKFSDNDKLYLYLQLPSGPTTGDKSSEPSTLSNEEYM
B2: RFX5(187-265) (domain or fragment, UniProt P48382 187-265, looked up)
chain: EMGPEVTPAPRDELVEAACALTCDWAERILKRSFSSIVEVARFLLQQHLISARSAHAHVLKAMGLAEEDEHAPRERSSK
B3: RFXAP(215-272,F217Y) (domain or fragment, UniProt O00287 215-272, looked up)
chain: GSYGDRPARPTLLEQVLNQKRLSLLRSPEVVQFLQKQQQLLNQQVLEQRQQQFPGTSM
B4: RFX5(25-90) (domain or fragment, UniProt P48382 25-90, looked up)
chain: GEPTTLLQRLRGTISKAVQNKVEGILQDVQKFSDNDKLYLYLQLPSGPTTGDKSSEPSTLSNEEYM
B5: RFX5(1-330) (domain or fragment, UniProt P48382 1-330, looked up)
chain: MAEDEPDAKSPKTGGRAPPGGAEAGEPTTLLQRLRGTISKAVQNKVEGILQDVQKFSDNDKLYLYLQLPSGPTTGDKSSEPSTLSNEEYMYAYRWIRNHLEEHTDTCLPKQSVYDAYRKYCESLACCRPLSTANFGKIIREIFPDIKARRLGGRGQSKYCYSGIRRKTLVSMPPLPGLDLKGSESPEMGPEVTPAPRDELVEAACALTCDWAERILKRSFSSIVEVARFLLQQHLISARSAHAHVLKAMGLAEEDEHAPRERSSKPKNGLENPEGGAHKKPERLAQPPKDLEARTGAGPLARGERKKSVVESSAPGANNLQVNALVARLP
B6: RFXB (natural protein, UniProt O14593 1-260, looked up)
chain: MELTQPAEDLIQTQQTPASELGDPEDPGEEAADGSDTVVLSLFPCTPEPVNPEPDASVSSPQAGSSLKHSTTLTNRQRGNEVSALPATLDSLSIHQLAAQGELDQLKEHLRKGDNLVNKPDERGFTPLIWASAFGEIETVRFLLEWGADPHILAKERESALSLASTGGYTDIVGLLLERDVDINIYDWNGGTPLLYAVRGNHVKCVEALLARGADLTTEADSGYTPMDLAVALGYRKVQQVIENHILKLFQSNLVPADPE
B7: RFX5(88-330) (domain or fragment, UniProt P48382 88-330, looked up)
chain: EYMYAYRWIRNHLEEHTDTCLPKQSVYDAYRKYCESLACCRPLSTANFGKIIREIFPDIKARRLGGRGQSKYCYSGIRRKTLVSMPPLPGLDLKGSESPEMGPEVTPAPRDELVEAACALTCDWAERILKRSFSSIVEVARFLLQQHLISARSAHAHVLKAMGLAEEDEHAPRERSSKPKNGLENPEGGAHKKPERLAQPPKDLEARTGAGPLARGERKKSVVESSAPGANNLQVNALVARLP
B8: RFXB(88-260) (domain or fragment, UniProt O14593 88-260, looked up)
chain: TLDSLSIHQLAAQGELDQLKEHLRKGDNLVNKPDERGFTPLIWASAFGEIETVRFLLEWGADPHILAKERESALSLASTGGYTDIVGLLLERDVDINIYDWNGGTPLLYAVRGNHVKCVEALLARGADLTTEADSGYTPMDLAVALGYRKVQQVIENHILKLFQSNLVPADPE

What was measured:
RFXAP = target: T1, RFXAP; assay: SEC
SEC-MALS = target: the molecule itself; assay: SEC-MALS
RFXB(88-260) = target: B8; assay: SEC-MALS
RFX5(25-90) = target: B4; assay: SEC
cross-linking [1] = target: the molecule itself; assay: cross-linking
cross-linking [2] = target: the molecule itself; assay: cross-linking; remark: listed apart in the source
RFXAP(215-272,F217Y) = target: B3; assay: SEC-MALS
SEC = target: the molecule itself; assay: SEC
RFX5(1-330) = target: B5; assay: SEC
RFXB = target: B6; assay: SEC
[3] = target: RFX5(25-90)2•RFXAP(215-272) complex (UniProt P48382); assay: SEC-MALS; conditions: scale: RFXB(88-260) per RFX5(25-90)2•RFXAP(215-272)
RFX5(88-330) = target: B7; assay: SEC
[4] = target: RFX5(25-90)2•RFXAP(215-272) complex (UniProt P48382); assay: ITC

B1
binding result (RFXAP): binds

B2
stoichiometry N (SEC-MALS): 2

B3
binding result (RFXB(88-260)): binds
binding result (RFX5(25-90)): binds

B4
stoichiometry N (cross-linking [1]): 4
stoichiometry N (cross-linking [2]): 2
stoichiometry N (RFXAP(215-272,F217Y)): 2 RFX5(25-90) per RFXAP(215-272)

B5
stoichiometry N (SEC): 2

B6
binding result (RFX5(1-330)): binds
binding result (RFXAP): binds

B7
binding result (RFXB): binds

B8
stoichiometry N [3]: 1
binding result (RFX5(88-330)): binds
Kd [4]: 75.5 nM
stoichiometry N [4]: 1.02

Reference: PMC2700855 (Proteins, 2009)
